Reference: PMC12629992

Molecular target: native myeloperoxidase monomer (one heavy and one light chain) (human) (UniProt P05164)
Assay: mass photometry; native MPO 100 nM in 20 mM HEPES pH 7.5, 200 mM NaCl, without or with 10 or 50 mM DTT, diluted 1:10 before measuring; dimer to monomers

For “native myeloperoxidase monomer (one heavy and one light chain) (from UniProt P05164 279-745) (enzyme)”, the stoichiometry N was 2.
